Data from patent US20200171163A1 (Daiichi Sankyo, published 2020).

T1: Recombinant Human CDH6 Fc His chimera (R&D Systems, Inc.) (human, UniProt P55285 54-615)
T1 construct: Bought product; also called the antigen; human CDH6 antigen
T1 sequence: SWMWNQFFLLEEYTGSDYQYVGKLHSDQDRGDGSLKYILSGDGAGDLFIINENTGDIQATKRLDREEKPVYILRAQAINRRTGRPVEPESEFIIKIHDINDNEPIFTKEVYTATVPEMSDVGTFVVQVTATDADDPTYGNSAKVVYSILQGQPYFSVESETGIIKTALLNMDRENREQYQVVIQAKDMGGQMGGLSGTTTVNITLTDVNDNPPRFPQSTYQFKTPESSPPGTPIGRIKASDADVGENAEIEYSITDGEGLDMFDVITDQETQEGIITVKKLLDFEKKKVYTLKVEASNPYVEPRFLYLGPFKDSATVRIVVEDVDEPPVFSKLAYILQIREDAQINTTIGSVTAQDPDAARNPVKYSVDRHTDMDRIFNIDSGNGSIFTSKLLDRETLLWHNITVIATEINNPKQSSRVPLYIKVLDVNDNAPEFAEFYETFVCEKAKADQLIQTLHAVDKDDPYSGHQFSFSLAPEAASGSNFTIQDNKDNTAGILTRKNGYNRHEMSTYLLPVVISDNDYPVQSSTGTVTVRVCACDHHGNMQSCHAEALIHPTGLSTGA

T2: mouse CDH6 (on cells) (mouse, UniProt P97326 54-790)
T2 construct: also called mCDH6
T2 sequence: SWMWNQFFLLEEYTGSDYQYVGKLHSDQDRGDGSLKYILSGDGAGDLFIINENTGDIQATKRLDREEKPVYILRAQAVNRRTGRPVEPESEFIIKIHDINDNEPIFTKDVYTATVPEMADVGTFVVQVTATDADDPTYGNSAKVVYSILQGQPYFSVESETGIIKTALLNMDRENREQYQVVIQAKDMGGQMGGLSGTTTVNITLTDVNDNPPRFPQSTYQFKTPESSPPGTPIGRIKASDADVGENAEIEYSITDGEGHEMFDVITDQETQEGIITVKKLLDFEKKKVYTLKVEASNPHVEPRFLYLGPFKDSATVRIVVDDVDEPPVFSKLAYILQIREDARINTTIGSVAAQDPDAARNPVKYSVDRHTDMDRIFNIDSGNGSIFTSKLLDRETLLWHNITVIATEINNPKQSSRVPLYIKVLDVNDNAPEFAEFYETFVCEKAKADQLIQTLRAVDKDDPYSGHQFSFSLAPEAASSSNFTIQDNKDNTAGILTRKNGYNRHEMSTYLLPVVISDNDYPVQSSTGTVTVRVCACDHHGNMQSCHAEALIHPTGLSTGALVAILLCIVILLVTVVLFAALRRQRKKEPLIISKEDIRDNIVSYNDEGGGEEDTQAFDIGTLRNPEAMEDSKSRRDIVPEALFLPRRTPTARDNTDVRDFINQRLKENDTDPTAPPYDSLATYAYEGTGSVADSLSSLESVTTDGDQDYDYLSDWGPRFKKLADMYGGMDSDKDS


Key:
[1] = biological target: T1, Recombinant Human CDH6 Fc His chimera …; experiment: SPR (Biacore T200), antigen captured by anti-His antibody, antibody as analyte, steady state affinity model
Procedure: The dissociation constant between the antibody and the antigen (Recombinant Human CDH6 Fc His chimera, R&D Systems, Inc.) was measured by using Biacore T200 (GE Healthcare Biosciences Corp.), according to a capture method, which comprises capturing the antigen as a ligand with the immobilized anti-His antibody and then measuring the dissociation constant using an antibody as an analyte. Approximately 1000 RU of the anti-histidine antibody (His capture kit, GE Healthcare Biosciences Corp.) was covalently bound to sensor chip CM5 (GE Healthcare Biosciences Corp.) by the amine coupling method. The antibody was also immobilized onto reference cells in the same manner as above. HBS-P+ (10 mM HEPES pH 7.4, 0.15 M NaCl, 0.05% Surfactant P20) supplemented with 1 mM CaCl₂ was used as a running buffer. The antigen was added onto the anti-histidine antibody-immobilized chip for 60 seconds, and a dilution series solution (0.391 to 100 nM) of the antibody was then added at a flow rate of 30 μl/min for 300 seconds. Subsequently, the dissociation phase was monitored for 600 seconds. As a regeneration solution, a glycine solution (pH 1.5) supplemented with 5 M MgCl2 was added twice at a flow rate of 10 μl/min for 30 seconds. A Steady State Affinity model in analysis software (BIAevaluation software, version 4.1) was used in data analysis, and the dissociation constant (KD) was calculated.

[2] = biological target: T2, mouse CDH6 (on cells); experiment: flow cytometry, MFI vs antibody concentration; 293α cells transiently transfected with mCDH6; PE anti-human IgG Fc
Procedure: The cells were cultured overnight under conditions of 37° C. and 5% CO₂, and thereafter, a cell suspension was prepared. […] Thereafter, the cells were suspended by the addition of each of the 4 humanized hG019 antibodies (clone Nos: H01L02, H02L02, H02L03 and H04L02), which had been prepared in Example 5)-5-3, or human IgG1 control (Calbiochem). The cells were left standing at 4° C. for 1 hour. The cells were washed twice with PBS supplemented with 5% FBS, and then suspended by the addition of anti-human IgG, Fc(gamma) PE goat F(ab′) (Jackson ImmunoResearch Laboratories, Inc.) that had been 500-fold diluted with PBS supplemented with 5% FBS. The cells were left standing at 4° C. for 1 hour. The cells were washed twice with PBS supplemented with 5% FBS, followed by detection using a flow cytometer (Canto II; BD Biosciences). The data was analyzed using FlowJo (Tree Star, Inc.). In FIGS. 6-1 and 6-2, the abscissa depicts antibody concentration, and the ordinate depicts the amount of the antibody bound based on mean fluorescence intensity. As shown in FIGS. 6-1 and 6-2, the human IgG1 control as a negative control binds to none of the CDH6-transfected cells. The 4 humanized hG019 antibodies (clone Nos: H01L02, H02L02, H02L03 and H04L02) bind to human CDH6 and cynomolgus monkey CDH6, but bind to neither mouse nor rat CDH6. None of the antibodies bind to the cells transfected with the empty vector pcDNA3.1 as a negative control.

Row | Kd [1] | binding result [2] | Binder
1 | 1.1 nM | no binding (tested: about 4 nM) | H02L02 antibody (antibody, human IgG1, kappa, V domains shown, Humanized IgG1/kappa (hH02 + hL02); also called humanized hG019 antibody H02L02) VH: EVQLVQSGAEVKKPGASVKVSCKASGYTFTRNFMHWVRQAPGQGLEWMGWIYPGDGETEYNQKFQGRVTITADRSTSTAYMELSSLRSEDTAVYFCARGVYGGFAGGYFDFWGQGTLVTVSS VL: DIQMTQSPSSLSASVGDRVTITCKASQNIYKNLAWYQQKPGKAPKLLIYDANTLQTGVPSRFSGSGSGSDFTLTISSLQPEDFATYFCQQYYSGWAFGQGTKVEIKR
2 | 1.4 nM | no binding (tested: about 4 nM) | H02L03 antibody (antibody, human IgG1, kappa, V domains shown, Humanized IgG1/kappa (hH02 + hL03); also called humanized hG019 antibody H02L03) VH: EVQLVQSGAEVKKPGASVKVSCKASGYTFTRNFMHWVRQAPGQGLEWMGWIYPGDGETEYNQKFQGRVTITADRSTSTAYMELSSLRSEDTAVYFCARGVYGGFAGGYFDFWGQGTLVTVSS VL: DIQMTQSPSSLSASVGDRVTITCKASQNIYKNLAWYQQKLGEGPKLLIYDANTLQTGVPSRFSGSGSGTDFTLTISSLQPEDFATYYCQQYYSGWAFGQGTKVEIKR
3 | 1.5 nM | no binding (tested: about 4 nM) | H01L02 antibody (antibody, human IgG1, kappa, V domains shown, Humanized IgG1/kappa (hH01 + hL02); also called humanized hG019 antibody H01L02; labeled H01L02) VH: EVQLVQSGAEVKKPGASVKVSCKASGYTFTRNFMHWVRQAPGQGLEWMGWIYPGDGETEYAQKFQGRVTITADTSTSTAYMELSSLRSEDTAVYYCARGVYGGFAGGYFDFWGQGTLVTVSS VL: DIQMTQSPSSLSASVGDRVTITCKASQNIYKNLAWYQQKPGKAPKLLIYDANTLQTGVPSRFSGSGSGSDFTLTISSLQPEDFATYFCQQYYSGWAFGQGTKVEIKR
4 | 1.1 nM | no binding (tested: about 4 nM) | H04L02 antibody (antibody, human IgG1, kappa, V domains shown, Humanized IgG1/kappa (hH04 + hL02); also called humanized hG019 antibody H04L02) VH: QVQLVQSGAEVKKPGASVKVSCKASGYTFTRNFMHWIRQAPGQGLEWMGWIYPGDGETEYAQKFQGRVTLTADRSTSTAYMELSSLRSEDTAVYYCARGVYGGFAGGYFDFWGQGTLVTVSS VL: DIQMTQSPSSLSASVGDRVTITCKASQNIYKNLAWYQQKPGKAPKLLIYDANTLQTGVPSRFSGSGSGSDFTLTISSLQPEDFATYFCQQYYSGWAFGQGTKVEIKR
